Reference: the domain aggregation screens of Martell et al. (2025)

Assay: soluble fraction after stress (log2 fold change); higher = more stays soluble; pooled small domains, quantitative proteomics
Conditions: stress: 50 degC
How it was run: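 Each library was heated to 50°C as a stress step. The libraries, made up of small protein domains, were pooled and analysed at high throughput by quantitative proteomics. The reported value is the base-two logarithm of the fold change in each protein's soluble amount after stress, taken as a measure of aggregation propensity. The higher the value, the more protein stays in solution.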

Row | Sequence | soluble fraction (log2)
1 | HMKISIDNPSVLLDKLATLFPDTSKNKLRKMLTEGRIYVNDNIEHRAKRELINGDTVKILDKTTSKE | 0.0915
2 | HMKNLTERQQRIIALISENPQTTRAEIAGAIGVATKTIERELTTLSNIVYYVGPKKGGHWEIIK | -0.865
3 | HMSLEDYVIIKNKTVKVYETEFDGAPVVTSSSVGQKLILVEYNDNFAKILYRAKDGLDYVGYIKRKDVYVR | -2.4
4 | HMAWIAVATKEDYSEYEWKELSPTTDWSTQTFDLGDLAGKTIYAVKMFFDHDTDVKDYKFNLGQLSITSN | -0.266
5 | HMKSSYSGNFKQNVVEYMHNNHLSATETANHFKLGGGSVVLRWERIYYEEGPQALYEERRGR | -1.7
6 | HMVAGHLQEKNGYFYIVLNYTNHEGKRKSKWITTGLTVKGNKKRAQDLLQEARKTFVPDIPT | -1.19
7 | HMKSLLTARQLEVFEIARNKGYWTTPRKISLVELSKLLDISKSTLSVLLHSIEGKVMEEFYEEIRQ | -1.81
8 | HMRKLHFVMSEIYEDHPWIGSKLQDVFLPKDIRVVLVERDSKQFMPNGQTLFELGDRLTLSALHYDPA | -3.02
9 | HMSQLSDEQELRDIARGIIEGNPNEAEKYRAGRTGLLGFFVGKLMAETEGKANPRLASRILKELLE | -0.0477
10 | HMEAGTEYVERAADYIRSHFQEDLTVSKLALYVGLNRSYLTTVFQNTLHVSPQQFLMRFRMERAAQLLD | 0.0719
11 | HMQSREISYSDFVASVERGEVATVILDGENIRFKGGDNVEYVTVRPADTNVTDLLIENQVVVRAEK | 0.155
12 | HMPDLSMLDEVLDEYRSQAGSLVTVLQKAQDLYGYLPLTILRHIAEEMNIKPAQVYGVATFYTQFRL | -0.0547
13 | HMTGKVSHGERKSVLVSLAGSMRARGMSIDAVRAGLYADNEKRFDPPLDERDIEDVLNSAKKWGDP | -0.322
14 | HMVEPLIVRNFSINYADIDKLETKIKDYISNSDKSGVNRGRVTSDTRTNMLIVTETASKLAQVEQLLKALD | -0.181
15 | HMTNIELYQRLLNLGFTPAQAKILLVQYDETRLTDNLNYVDFKKQQGNIENLPAYTTTIIKKDVRL | -0.389
16 | HMKVFREERLQLILEKLIHEKKVVVSDLVKYFNVSPSLIRMDLAELEKRDLILRTHGGAILPD | -2.23
17 | HMMEERVIEFANVLRRNGVRVSLAENMDAFRALKSLGISDPLLFRHALRATLIKRGSDIQPFEELFDFFFL | -1.26
18 | HMNEDTEDIKNINSLVNKLTENNFDIIRDSIVKLINKEHLIPYIIETIIEKSILHHRYVHLYVSILKE | 0.0794
19 | HMSGLEDIKKKILEDAGIKKGSVKFVKVDKDYDDGIWKYEIDFVYDGKEYEYEIEVETGKILSRKTEKSD | -0.317
20 | HMTEEYAVLWRVARQTLKPEAFDVLWMKYREQLSIAEIAGIMNRSETSVKVMLHRARKNLGTALESS | -1.71
21 | HMRNEFEAHSDGTRIQLNDRSKATFSVYDVQGRLIHSFQDFSGSSFNIEPKNQLLIITRETAEGVSVKKLV | 0.0942
22 | HMDDHLRLSDNERISAMSALATHFTEGRLDTSEFDERTLAASQAKSRGDLRPLFDDLPGQLPAALSP | 0.0376
23 | HMSDGYETLVNMAKPFLNNSKQITENDITDAVNTVSVMLKKRYDMTDEDIRKAVSELLHFYA | -0.057
24 | HMRSAKEYKAIREEIYRFIGAYITKHVYAPSNKEIAEAVGISGTTVHRHLIDMIDEGILETD | -2.56
25 | HMRASVTYVVQVNGKLRGKLEVAPDIDPEELKKLALEVENVKHSLQGWTVKKVIVIPGKMVSIAAGK | 0.0764

Row | Sequence | soluble fraction (log2)
26 | HMELLSGTVEKVLTSGVLVKLPGGAIGFIPNSEMGTPRGTNHGKMFPAGTPLQVMVVEVNQDRGRITLSR | -1.45
27 | HMGQKNEDESLAKFYVHKKGNQYGPYSLIQIREYLKNNSFSLDDLASWDGQSWKKISQIPNLN | -0.075
28 | HMVMETLAERINTALQTKGLSVNALARRVGVSYPAMRKITKGETLNPKFLFEIAEALGVSVEWLKTGEGSP | -0.372
29 | HMGSNRPLALGDVVRIEGSKTLGTILELNAKDAVVALGALKTTLPLSRIHHASSQESQRLKRQATQAPLR | 0.123
30 | HMGDPEYFKKQLGDFMDRFNITSEDIKNLSIAGAINRMMNNAEGEDKTVLSKLLETVNKSGVGNLPAKTI | 0.0622
31 | HMKVKEYKLVDWISTFTKNEGYGISQKAAMLLAEFLGDDLSRIANEIEKLKLLVEKGTTINDVHIEENI | -0.797
32 | HMSTVIENVFKNFEVYEIKKGDTFYNIEKRFGVNRQELLVLNPELKEGLKLGMVLKIKEIIP | -1.07
33 | HMTTTYTVPKVTGMTLEEAREDPDVVGRFTIVEGEKVTSDTVPVGQIVSQEPAAHRQVGEDGLTITVNIS | 0.289
34 | HMTMTIEITVNGKTKTLVAELSLADLLRDLGMTKGRIAVELNGHIVPRSQFSSKTISNLDSIEIVQ | -3.23
35 | HMETVRHFRLDWSQAADRLDKVLASLMNDVSRARIQEWIRLGAVSVNGEILTDVRAKVAGGDAIDVTPQTA | -0.0893
36 | HMRSSALDEIPGIGKQRKKNLLVHFTSVAKIKEASLDEIAAVPGMNRKAALVVVEFFQNQERE | -1.79
37 | HMASANMPDVLGLDAETAKQVLAAKGFTKVEIYPMESSEPANRVVRQSEDRDTMVALTKEILLGVSNGS | 0.186
38 | HMGPTLSPAEKRVFEVIPYDAILQDMVIRAAELPPGEVLAALTTLELKGLIKRLPGNLVMRRAR | 0.0188
39 | HMDGLGLGAVILAQRKRQGWTQEDLAARIGVSKGAVSKWETGQSYPDLPLVPRLAALFHITVDELLDYR | -0.662
40 | HMDPALSPAEQKIWDLLAAGETHIDDLVRASGLPVATVNSALVMMEMKEVISQVAAKTYRRNRRN | -0.0324
41 | HMTATVPDSEAGIRLDVYAAALLGVSRAGAQKYIESGAVRVNGLPAPKNRRLESGDVIEAVLPDPE | 0.157
42 | HMNGGPHYLRDVRTSLGLSQADLAKAVGTSANMIHYLESGERALTLKWIRRISEALNVSPMRLIN | -1.6
43 | HMDPKISWESDEKLSANIGHYENSIKPLMGNKYLIELSQLKDKIESHPWVARATIKRIFWNKIHIQLESHD | 0.00717
44 | HMHRTRNAERTRAAVLKAAAEVLAERGTGASLARIAEVAGVSKSGLLHHFANREQLIVALLED | -0.984
45 | HMVPHQPRVWTNTAGKTITAAFVRFNAAGRKVSLKLEKGRQVELPLASLSGNDVDWIKEHVPEAMSNQE | -0.142
46 | HMAPETALQILEQIQINPKVTMTDLANLTGYSRRWVAQTMKQLQELNVIKRVGSTKTGYWEIIA | -0.138
47 | HMTVPTEVALELMHATALEDNEQRILYIASFKEKHREHLHATIEVDGQEVTLARYADLVATGAYL | -0.505
48 | HMYHPGFEALREVARQGSFIKAARALGISGPAVSKQIKSLEARLNLVLLHRTTRAVTLTEAGQRLTEILD | -2.07
49 | HMSDDAVVRMRVPEDALGLSLRETDFRQRFGVYVLAIETRDGKLLAPPDPQRPLGKDDVLVVIQKR | -0.138
50 | HMISEGDIIKGTVIDVNEEEVILDLKYYAQGVIKAENLSNDPDFLAAGKISVGDEIEATVIKMDDGEGNIE | 0.0355

Row | Sequence | soluble fraction (log2)
51 | HMPAGWIPARIRLADYPQLRSLAWHVQGIDTLTPTEALDIYERNARHLDAQAMSAQEQDLLASLRLALS | -0.839
52 | HMKYEGEDEYYASLVTEKIAAIGTVTEESEDAIKEARAAYDALTSAQKKLVTNYDVLDEAEK | 0.371
53 | HMQVAPDLMQRLTSQGHVDEKLSDALVHARQITNFEGRRRQMQFIGKLMRKLSEESIEAVKDALNEQRM | -0.264
54 | HMDAPKPDIGMSTDQIRSSLGQPGSQTRLETGGGRIYELWIYLYPDGKELQIYFDNAKVVKMEALS | -0.613
55 | HMEVSVPDFTGMSKSDAQNAAKEAGLTVNFEEDYDNQVPAGQVIRSNPSAGEKVKKNSSVTVTLSKGSN | -0.0943
56 | HMIEESTVPDLKGKSQEDAIKLLEDANLKYQIVEEESKKIEAGYVISQETDANKKVNAGDTVIIHVST | 0.295
57 | HMRMSPRERKIYQFIENHPGTKSGEMAEKLGIPLPTIKRLLSDMVASKLLQKHGTGAGTNYSIEE | 0.201
58 | HMAFGTGTVTASSLRVREDASTSAATLDTLSKGSKVSVLADEQDGFYKVQIGEQVGYMSAEYLDVTE | 0.0904
59 | HMIIVMKRNATETQIDHVVRWVESIGYRAHRSNGTEQTVVKAVGGERGGEELKYLAALSGVEKVVPIR | -0.0291
60 | HMIPDPPALGSNLHRERRRQQLSLDALAAASGVSKAMLSQIEADKVNPTIATMWKIAHALNIDFETLLRGE | -0.283
61 | HMRTNNEITSYKLKSGKKRWKFQTYLGLDDKGQKVSVTRQGFRTYNEAISEYNKLRAQGTQGYQ | -0.355
62 | HMKYGPSTVAVLTVVRESEMGAFLDAETGRTNDDILLHKTQQTEPVHIGDQVKVFLYLDPKHRLTASMRVP | -1.16
63 | HMHFEWNELRKAINDFLAEQNMNEDKQLGPYFIQRDIVVPETGTEIDSKKFSEVFKHKVIMYLFDDAAKQ | -0.0513
64 | HMPHILEITSSKILDELQDEKKMVYFHFEKQSNQYVYRLIFNSKNELMEFKKSLEKNSSILDVRADM | 0.216
65 | HMEHDTVLSKVFRRLREAHVPLSLDDIYQGLRKTVNNNSEIREKIVTLQERGLVAEILGPKGGKKYVAKPT | -0.105
66 | HMETPQIVARGDLITMVFRSGSLVLTAKGKALENGAMGDTIRVVNSDSNKTLAARVSASREVTVSE | -0.417
67 | HMANKTVPNVSGKTVAEARAIIENQSLQVGEEKEEYSDSVAEGYIIRTNPTAGSQKKEQSKIDLVVSKG | 0.203
68 | HMGPVPLASAADMEKFYSHLQQVLDEVDFKDRTGSGHLMARLRRLFQRTVLDQNEINILRGILMAVQGRR | -2.85
69 | HMYIDNVTIYDVGFNERIVHALERAGVKNLYDLSQMNFYQLQRIRNLGASSLEKVINRIHSYGILLKNES | -1.2
70 | HMVAPKDIVMPSFVGKKYTDVVNTPNSSYTFEFKKDEKNSSDYAVGFIMDQKPKAGETVKSNATVTLIVSK | -0.0152
71 | HMTDYREILRLLSLGLSRTQIADSLNVSRTTVIHTLQRAVAQELDWQTAEGMSDRELVAKLFPV | -3.47
72 | HMLGSGSKEQQLVILNNILERQVQAFNLQGGQEYPMVTLKNFYNTLSKMIENAGLKNVENYFVNPDVGKQM | -0.302
73 | HMRQHHMIISTKLGTPKEELAKLVSGFEDQGLRVSVITGTDYTVIGLVGDTTHLDEKRIRANPYVDNVQRV | -0.0184
74 | HMGMTDEELNREEERVVAELEAKDEEELTIYNEEDLTFEETLDLPEGSLMRDRENGMIYLKVLDIWMPY | -0.54
75 | HMPQVALAIDEMKRELASPDIVKTLLATTFKGLSEVNMRQAMLDGMIQGHTIADFFKKDVYAIPFGSGYSL | 0.0921
